Literature values in patent US9868772B2 (INDIANA UNIVERSITY RESEARCH AND TECHNOLOGY CORPORATION, priority 2012, dated 2018).

Target: T1, GIP receptor (Homo sapiens, UniProt P48546)
T1 construct: expressed in transfected cells; host or cells: HEK293
T1 sequence (P48546 22-466): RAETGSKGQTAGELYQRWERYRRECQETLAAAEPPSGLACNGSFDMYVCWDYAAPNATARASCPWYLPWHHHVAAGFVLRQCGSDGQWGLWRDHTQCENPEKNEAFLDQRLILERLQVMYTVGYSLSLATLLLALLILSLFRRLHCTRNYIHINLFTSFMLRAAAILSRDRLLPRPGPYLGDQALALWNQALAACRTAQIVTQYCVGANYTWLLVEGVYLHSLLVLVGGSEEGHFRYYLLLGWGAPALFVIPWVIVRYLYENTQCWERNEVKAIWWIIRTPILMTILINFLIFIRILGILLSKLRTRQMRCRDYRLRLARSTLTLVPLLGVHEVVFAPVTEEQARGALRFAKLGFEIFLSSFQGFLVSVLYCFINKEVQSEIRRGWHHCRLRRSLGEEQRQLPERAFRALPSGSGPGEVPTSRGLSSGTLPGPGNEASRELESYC
Settings: relative to native GIP; cited from earlier work

## Native glucagon: native human glucagon (SEQ ID NO: 1)
  activity of native GIP at the GIP receptor: ~0%
